Data as given in IntAct's records for PubMed 17053785.

B1: Partitioning defective 3 homolog (Homo sapiens), Q8TEW0 (parent)
chain: MKVTVCFGRTRVVVPCGDGHMKVFSLIQQAVTRYRKAIAKDPNYWIQVHRLEHGDGGILDLDDILCDVADDKDRLVAVFDEQDPHHGGDGTSASSTGTQSPEIFGSELGTNNVSAFQPYQATSEIEVTPSVLRANMPLHVRRSSDPALIGLSTSVSDSNFSSEEPSRKNPTRWSTTAGFLKQNTAGSPKTCDRKKDENYRSLPRDTSNWSNQFQRDNARSSLSASHPMVGKWLEKQEQDEDGTEEDNSRVEPVGHADTGLEHIPNFSLDDMVKLVEVPNDGGPLGIHVVPFSARGGRTLGLLVKRLEKGGKAEHENLFRENDCIVRINDGDLRNRRFEQAQHMFRQAMRTPIIWFHVVPAANKEQYEQLSQSEKNNYYSSRFSPDSQYIDNRSVNSAGLHTVQRAPRLNHPPEQIDSHSRLPHSAHPSGKPPSAPASAPQNVFSTTVSSGYNTKKIGKRLNIQLKKGTEGLGFSITSRDVTIGGSAPIYVKNILPRGAAIQDGRLKAGDRLIEVNGVDLVGKSQEEVVSLLRSTKMEGTVSLLVFRQEDAFHPRELNAEPSQMQIPKETKAEDEDIVLTPDGTREFLTFEVPLNDSGSAGLGVSVKGNRSKENHADLGIFVKSIINGGAASKDGRLRVNDQLIAVNGESLLGKTNQDAMETLRRSMSTEGNKRGMIQLIVARRISKCNELKSPGSPPGPELPIETALDDRERRISHSLYSGIEGLDESPSRNAALSRIMGESGKYQLSPTVNMPQDDTVIIEDDRLPVLPPHLSDQSSSSSHDDVGFVTADAGTWAKAAISDSADCSLSPDVDPVLAFQREGFGRQSMSEKRTKQFSDASQLDFVKTRKSKSMDLGIADETKLNTVDDQKAGSPSRDVGPSLGLKKSSSLESLQTAVAEVTLNGDIPFHRPRPRIIRGRGCNESFRAAIDKSYDKPAVDDDDEGMETLEEDTEESSRSGRESVSTASDQPSHSLERQMNGNQEKGDKTDRKKDKTGKEKKKDRDKEKDKMKAKKGMLKGLGDMFRFGKHRKDDKIEKTGKIKIQESFTSEEERIRMKQEQERIQAKTREFRERQARERDYAEIQDFHRTFGCDDELMYGGVSSYEGSMALNARPQSPREGHMMDALYAQVKKPRNSKPSPVDSNRSTPSNHDRIQRLRQEFQQAKQDEDVEDRRRTYSFEQPWPNARPATQSGRHSVSVEVQMQRQRQEERESSQQAQRQYSSLPRQSRKNASSVSQDSWEQNYSPGEGFQSAKENPRYSSYQGSRNGYLGGHGFNARVMLETQELLRQEQRRKEQQMKKQPPSEGPSNYDSYKKVQDPSYAPPKGPFRQDVPPSPSQVARLNRLQTPEKGRPFYS

Variants of: B1
Conditions: with csk_human CSK

Row | Variant | effect of a mutation on the interaction
1 | Y1127F | disrupting interaction
